# Reference: article PMC4663267, “A Novel C-Terminal Domain of RecJ is Critical for Interaction with HerA in Deinococcus radiodurans”
# T1: DrRecJ;DrHerAΔN (Deinococcus radiodurans;Deinococcus …, UniProt D0EM60;Q9RW32 1-705;136-618, |)
# T1 sequence 1: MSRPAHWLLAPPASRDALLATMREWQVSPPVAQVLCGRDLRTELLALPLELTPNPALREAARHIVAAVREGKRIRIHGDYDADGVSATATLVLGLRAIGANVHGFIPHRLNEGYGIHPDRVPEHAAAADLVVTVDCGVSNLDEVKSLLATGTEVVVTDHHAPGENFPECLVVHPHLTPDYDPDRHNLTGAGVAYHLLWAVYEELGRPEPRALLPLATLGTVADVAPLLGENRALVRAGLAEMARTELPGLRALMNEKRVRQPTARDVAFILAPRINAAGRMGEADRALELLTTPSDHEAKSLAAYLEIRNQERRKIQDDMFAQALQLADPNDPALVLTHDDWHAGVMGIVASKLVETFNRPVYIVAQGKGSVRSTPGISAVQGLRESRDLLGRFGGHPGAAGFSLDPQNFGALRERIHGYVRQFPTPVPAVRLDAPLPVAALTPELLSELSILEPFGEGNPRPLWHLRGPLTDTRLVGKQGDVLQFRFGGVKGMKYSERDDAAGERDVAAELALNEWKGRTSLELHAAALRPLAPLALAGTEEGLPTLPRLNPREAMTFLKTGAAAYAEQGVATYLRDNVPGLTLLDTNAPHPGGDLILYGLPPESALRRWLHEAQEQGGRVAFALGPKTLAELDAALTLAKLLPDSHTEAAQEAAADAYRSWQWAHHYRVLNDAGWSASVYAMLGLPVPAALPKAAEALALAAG
# T1 sequence 2: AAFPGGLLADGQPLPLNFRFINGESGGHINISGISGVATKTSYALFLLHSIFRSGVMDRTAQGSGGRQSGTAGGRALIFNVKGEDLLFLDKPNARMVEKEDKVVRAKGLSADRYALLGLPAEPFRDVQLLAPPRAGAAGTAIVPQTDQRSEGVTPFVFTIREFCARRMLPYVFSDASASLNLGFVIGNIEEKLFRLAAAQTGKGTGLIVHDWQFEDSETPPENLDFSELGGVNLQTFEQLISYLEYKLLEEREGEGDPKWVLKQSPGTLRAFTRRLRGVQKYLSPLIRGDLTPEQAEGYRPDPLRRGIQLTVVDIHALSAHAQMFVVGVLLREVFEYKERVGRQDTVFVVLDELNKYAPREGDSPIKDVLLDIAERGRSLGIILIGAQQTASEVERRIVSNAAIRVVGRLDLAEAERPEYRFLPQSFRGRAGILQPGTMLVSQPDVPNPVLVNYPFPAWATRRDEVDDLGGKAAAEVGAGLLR
# T2: DrRecJ;DrHerA (Deinococcus radiodurans;Deinococcus …, UniProt D0EM60;Q9RW32 1-705;1-618, |)
# T2 sequence 1: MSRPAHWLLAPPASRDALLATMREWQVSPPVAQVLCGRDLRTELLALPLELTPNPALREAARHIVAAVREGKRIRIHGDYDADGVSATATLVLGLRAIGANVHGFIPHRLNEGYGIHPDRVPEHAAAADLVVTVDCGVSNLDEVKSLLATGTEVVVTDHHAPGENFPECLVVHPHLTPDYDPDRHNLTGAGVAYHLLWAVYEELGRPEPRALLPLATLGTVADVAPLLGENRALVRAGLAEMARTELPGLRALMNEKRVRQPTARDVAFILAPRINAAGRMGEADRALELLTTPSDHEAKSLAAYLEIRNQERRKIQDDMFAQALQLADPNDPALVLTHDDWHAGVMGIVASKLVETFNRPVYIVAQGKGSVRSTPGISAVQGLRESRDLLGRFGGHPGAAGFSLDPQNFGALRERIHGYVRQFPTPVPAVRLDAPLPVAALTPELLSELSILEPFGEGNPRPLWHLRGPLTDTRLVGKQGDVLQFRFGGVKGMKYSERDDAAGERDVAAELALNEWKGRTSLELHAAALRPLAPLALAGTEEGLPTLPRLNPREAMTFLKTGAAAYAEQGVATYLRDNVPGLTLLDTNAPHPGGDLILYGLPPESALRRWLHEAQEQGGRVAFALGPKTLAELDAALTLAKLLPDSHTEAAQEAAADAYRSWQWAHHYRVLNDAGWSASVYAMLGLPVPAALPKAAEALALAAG
# T2 sequence 2: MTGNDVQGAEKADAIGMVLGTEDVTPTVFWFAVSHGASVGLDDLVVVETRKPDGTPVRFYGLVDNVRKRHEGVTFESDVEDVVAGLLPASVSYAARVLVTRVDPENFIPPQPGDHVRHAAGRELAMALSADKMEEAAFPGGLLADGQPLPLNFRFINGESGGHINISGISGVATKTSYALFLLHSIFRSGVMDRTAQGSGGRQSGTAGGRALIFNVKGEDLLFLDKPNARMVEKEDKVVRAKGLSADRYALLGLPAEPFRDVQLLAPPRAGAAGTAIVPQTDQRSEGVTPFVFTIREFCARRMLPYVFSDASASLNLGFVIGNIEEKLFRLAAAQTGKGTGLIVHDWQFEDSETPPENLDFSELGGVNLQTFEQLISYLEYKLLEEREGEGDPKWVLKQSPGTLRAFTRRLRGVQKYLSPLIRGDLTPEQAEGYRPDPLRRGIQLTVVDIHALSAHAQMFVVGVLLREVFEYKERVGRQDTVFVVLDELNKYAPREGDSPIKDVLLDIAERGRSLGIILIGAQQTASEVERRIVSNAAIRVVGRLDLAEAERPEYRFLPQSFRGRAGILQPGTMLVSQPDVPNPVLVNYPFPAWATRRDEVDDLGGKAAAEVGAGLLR
# Tests used:
# DrRecJ;DrHerAΔN = molecular target: T1, DrRecJ;DrHerAΔN; test: EMSA; with 4 uM DrNurA (dimer, P6), 800 nM HerAΔN hexamer; stimulation not decreased; EMSA: 100 nM DNA, 80 mM NaCl, 20 mM Tris-HCl pH 7.5, 1 mM DTT, 30 C, 10 min, 5% TBE native PAGE; settings: protein: recombinant;recombinant; tags: HMT (His6-MBP) tag removed by TEV;N-terminal His6; copies: 1;6; label: 5' FAM; single strand
# DrRecJ;DrHerA = molecular target: T2, DrRecJ;DrHerA; test: EMSA; HerA hexamer:RecJ 8:1; super-shift, RecJ binding enhanced; EMSA: 100 nM DNA, 80 mM NaCl, 20 mM Tris-HCl pH 7.5, 1 mM DTT, 30 C, 10 min, 5% TBE native PAGE; settings: protein: recombinant;recombinant; tags: HMT (His6-MBP) tag removed by TEV;N-terminal His6; copies: 1;6; label: 5' FAM; single strand
binder,measurement,setting,value
AAAAAAAAAA (ssDNA) [O1 (10 nt ssDNA)],binding result,DrRecJ;DrHerAΔN,binds
same,binding result,DrRecJ;DrHerA,binds
